Experimental data from patent US20230227537A1 (VIB VZW, published 2023).

Tests used:
[1] = target: SARS-CoV-1 spike, full length, on cells or on pseudotyped virus (SARS-CoV-1, UniProt P59594 14-1255); test: cell-based or functional assay
[2] = target: SARS-CoV-2 RBD protein Avi-tag biotinylated (AcroBiosystems SPD-C82E9) (SARS-CoV-2, UniProt P0DTC2 330-518)
[3] = target: SARS-CoV RBD (SARS-CoV-1, UniProt P59594 320-502)

B1: VHH72_h1 (VHH)
VHH: EVQLVESGGGLVQPGGSLRLSCAASGRTFSEYAMGWFRQAPGKEREFVATISWSGGSTYYTDSVKGRFTISRDNAKNTVYLQMNSLRPEDTAVYYCAAAGLGTVVSEWDYDYDYWGQGTLVTVSS
B1 was tested, and the “IC50, VSV-dG SARS-CoV-1 spike pseudotype neutralization” value [1] was 0.491 µg/mL.

B2: SARS VHH-72 (VHH)
VHH: QVQLQESGGGLVQAGGSLRLSCAASGRTFSEYAMGWFRQAPGKEREFVATISWSGGSTYYTDSVKGRFTISRDNAKNTVYLQMNSLKPDDTAVYYCAAAGLGTVVSEWDYDYDYWGQGTQVTVSS
With B2 the IC50 [2] was 16 nM.

B3: VHH72_h1(S56A) (VHH)
VHH: EVQLVESGGGLVQPGGSLRLSCAASGRTFSEYAMGWFRQAPGKEREFVATISWSGGATYYTDSVKGRFTISRDNAKNTVYLQMNSLRPEDTAVYYCAAAGLGTVVSEWDYDYDYWGQGTLVTVSS
For B3, the “IC50, VSV-dG SARS-CoV-1 spike pseudotype neutralization” value [1] was 0.045 µg/mL and the “fold better neutralization than parental VHH72” value [1] was 10 fold.

B4: VHH72_h1 (E1D) (VHH)
VHH: DVQLVESGGGLVQPGGSLRLSCAASGRTFSEYAMGWFRQAPGKEREFVATISWSGGSTYYTDSVKGRFTISRDNAKNTVYLQMNSLRPEDTAVYYCAAAGLGTVVSEWDYDYDYWGQGTLVTVSS
With B4 the koff [3] was 0.00219 s⁻¹.
